Data reported in the supplement of paper PMC7877785.
± gives the uncertainty stated by the source.

Experiment: self-splicing fitness, log relative to wild type (ln ratio); higher = more splicing; Tetrahymena group I intron in knt gene, E. coli kanamycin selection, DiMSum; sequences stand for … in CUCUCU…GGAGGGAAAAGUUAUCAGGCAUGCACCUGGUAGCUAGUCUUUAAACCAAUAGAUUGCAUCGGUUUAAAAGGCAAGACCGUCAAAUUGCGGGAAAGGGGUCAACAGCCGUUCAGUACCAAGUCUCAGGGGAAACUUUGAGAUGGCCUUGCAAAGGGUAUGGUAAUAAGCUGACGGACAUGGUCCUAACCACGCAGCCAAGUCCUAAGUCAACAGAUCUUCUGUUGAUAUGGAUGCAGUUCACAGACUAAAUGUCGGUCGGGGAAGAUGUAUUCUUCUCAUAAGAUAUAGUCGGACCUCUCCUUAAUGGGAGCUAGCGGAUGAAGUGAUGCAACACUGGAGCCGCUGGGAACUAAUUUGUAUGCGAAAGUAUAUUGAUUAGUUUUGGAGUACUCGUGGUCG
In short: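 Pooled colonies went to amplicon sequencing on an Illumina HiSeq 2500 after six replicate transformations. The plates were LB agar with 100 μg/mL carbenicillin, 50 μM IPTG and 0.2% rhamnose, with or without 25 μg/mL kanamycin, incubated overnight at 37°C or 30°C. The E. coli BL21(DE3) library had all eight P1ex-region intron nucleotides randomised, the intron placed in the knt kanamycin-resistance gene on pET-22b(+). DiMSum fitness is the error-weighted combination of replicate fold changes, kanamycin against none, normalised to wild type.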

| Sequence | self-splicing fitness (ln) (30 °C) | self-splicing fitness (ln) (37 °C) |
| --- | --- | --- |
| AUAAAGCAAUAUUACGAAGU | -1.82 ± 0.088 | -1.01 ± 0.098 |
| GAAUAGCAAUAUUACGGAAU | -2.69 ± 0.17 | -1.66 ± 0.2 |
| AAGAAGCAAUAUUACGCGUC | -2.48 ± 0.27 | -1.21 ± 0.3 |
| AUAGAGCAAUAUUACGCCAG | -2.27 ± 0.21 | -1.14 ± 0.27 |
| GGCCAGCAAUAUUACGAAGC | -2 ± 0.11 | 0.134 ± 0.13 |
| CGGCAGCAAUAUUACGCACA | -0.39 ± 0.1 | -0.122 ± 0.14 |
| AGUGAGCAAUAUUACGUUUG | -3.7 ± 0.23 | -2.8 ± 0.24 |
| GACGAGCAAUAUUACGAGCU | -3.27 ± 0.31 | – |
| CCUUAGCAAUAUUACGUGGG | -2.78 ± 0.16 | -2.35 ± 0.16 |
| CUCCAGCAAUAUUACGUGGG | -3.29 ± 0.11 | -2.62 ± 0.14 |
| GGGUAGCAAUAUUACGCACA | -0.833 ± 0.2 | 0.402 ± 0.22 |
| UCAUAGCAAUAUUACGUUUG | -3.04 ± 0.18 | -1.84 ± 0.2 |
| UUUUAGCAAUAUUACGUCAG | -3.93 ± 0.47 | -0.297 ± 0.27 |
| UCACAGCAAUAUUACGAGAC | -4.56 ± 0.46 | -2.61 ± 0.2 |
| CAGAAGCAAUAUUACGCAUG | -3.89 ± 0.21 | -2.44 ± 0.17 |
| CGCGAGCAAUAUUACGCAAC | -2.25 ± 0.31 | – |
| GACAAGCAAUAUUACGCAGG | -3 ± 0.13 | -1.71 ± 0.13 |
| UUACAGCAAUAUUACGUCUC | -2.98 ± 0.28 | -2.3 ± 0.22 |
| AAGCAGCAAUAUUACGAACC | -2.26 ± 0.14 | -0.526 ± 0.15 |
| AUUUAGCAAUAUUACGUCAU | -1.76 ± 0.1 | -0.485 ± 0.1 |
| CGAAAGCAAUAUUACGAGCA | -2.3 ± 0.25 | -0.869 ± 0.24 |
| ACGGAGCAAUAUUACGAAGG | -3.68 ± 0.21 | -2.7 ± 0.27 |
| CGUGAGCAAUAUUACGCACA | -1.32 ± 0.16 | -0.702 ± 0.18 |
| GCCGAGCAAUAUUACGUUCU | -1.23 ± 0.1 | -0.97 ± 0.1 |

| Sequence | self-splicing fitness (ln) (30 °C) | self-splicing fitness (ln) (37 °C) |
| --- | --- | --- |
| UACCAGCAAUAUUACGAGCG | -0.124 ± 0.06 | 0.206 ± 0.075 |
| UGCCAGCAAUAUUACGUGAU | -2.59 ± 0.14 | -1.6 ± 0.099 |
| AGACAGCAAUAUUACGUCAC | -3 ± 0.23 | -3.41 ± 0.19 |
| GCCUAGCAAUAUUACGAUCG | -2.05 ± 0.15 | -1.36 ± 0.18 |
| UUGUAGCAAUAUUACGUAAA | -1.72 ± 0.22 | -0.0948 ± 0.21 |
| GCCGAGCAAUAUUACGCCCU | -2.8 ± 0.25 | -0.0518 ± 0.2 |
| GCGCAGCAAUAUUACGUUGC | -2.95 ± 0.14 | -2.51 ± 0.27 |
| GAUGAGCAAUAUUACGUUUA | -3.13 ± 0.29 | -2.75 ± 0.23 |
| CGAUAGCAAUAUUACGCGCA | -0.97 ± 0.12 | -0.529 ± 0.12 |
| GGAGAGCAAUAUUACGGCUG | -2.1 ± 0.21 | -0.692 ± 0.21 |
| GAGCAGCAAUAUUACGCGGC | -3.97 ± 0.25 | -1.87 ± 0.14 |
| GCCCAGCAAUAUUACGUCUA | -1.37 ± 0.084 | -1.15 ± 0.093 |
| CUCUAGCAAUAUUACGUGGU | -5.48 ± 0.41 | -3.5 ± 0.22 |
| GCGUAGCAAUAUUACGUCAG | -1.8 ± 0.4 | -1.23 ± 0.4 |
| AUUCAGCAAUAUUACGGUUC | -1.64 ± 0.13 | -0.855 ± 0.16 |
| CCCAAGCAAUAUUACGUGAU | -3.67 ± 0.13 | -2.45 ± 0.16 |
| UGUUAGCAAUAUUACGGCUA | -1.01 ± 0.19 | 0.14 ± 0.19 |
| GAAGAGCAAUAUUACGCGUC | -2.98 ± 0.42 | -2.5 ± 0.48 |
| CUGCAGCAAUAUUACGCUCU | -3.52 ± 0.41 | -2.27 ± 0.25 |
| GACUAGCAAUAUUACGGAAG | -3.56 ± 0.19 | -2.21 ± 0.19 |
| ACUGAGCAAUAUUACGCGCU | -3.03 ± 0.23 | -2.1 ± 0.26 |
| CUUCAGCAAUAUUACGGACG | -0.00287 ± 0.06 | -0.541 ± 0.073 |
| CCUGAGCAAUAUUACGGUUC | -3.21 ± 0.23 | -3.06 ± 0.4 |
| CAAUAGCAAUAUUACGACAU | -3.694 ± 0.024 | -2.38 ± 0.037 |

| Sequence | self-splicing fitness (ln) (30 °C) | self-splicing fitness (ln) (37 °C) |
| --- | --- | --- |
| GAUGAGCAAUAUUACGGCAC | -0.478 ± 0.098 | -0.366 ± 0.16 |
| CACGAGCAAUAUUACGGUCG | -1.72 ± 0.14 | -0.457 ± 0.14 |
| CAGGAGCAAUAUUACGGGUC | -2.84 ± 0.19 | -2.92 ± 0.21 |
| AAAGAGCAAUAUUACGCCAG | -3.87 ± 0.35 | -0.837 ± 0.21 |
| CCGCAGCAAUAUUACGACCA | -3.34 ± 0.25 | -1.95 ± 0.25 |
| AAAGAGCAAUAUUACGCUAU | – | -2.46 ± 0.21 |
| AUUUAGCAAUAUUACGGAAA | -2.75 ± 0.29 | -1.47 ± 0.21 |
| UGCUAGCAAUAUUACGAUUA | -0.493 ± 0.095 | -0.286 ± 0.096 |
| GUUCAGCAAUAUUACGAUUC | 0.118 ± 0.095 | 0.523 ± 0.11 |
| UACUAGCAAUAUUACGCUGG | -4.47 ± 0.39 | -1.78 ± 0.24 |
| UCGCAGCAAUAUUACGUGGC | -3.81 ± 0.42 | -2.45 ± 0.31 |
| UUGGAGCAAUAUUACGCUUC | -3.11 ± 0.34 | -0.757 ± 0.28 |
| CAAGAGCAAUAUUACGCCGA | -2.4 ± 0.23 | -1.04 ± 0.32 |
| ACCAAGCAAUAUUACGAUUU | -1.51 ± 0.041 | -1.26 ± 0.054 |
| ACGAAGCAAUAUUACGCGCG | -0.867 ± 0.12 | -0.486 ± 0.18 |
| AUGUAGCAAUAUUACGUUGC | -3.43 ± 0.27 | -3.08 ± 0.32 |
| AAACAGCAAUAUUACGGCAC | -1.72 ± 0.083 | -0.057 ± 0.1 |
| GUCAAGCAAUAUUACGCCGC | -2.83 ± 0.28 | -2.35 ± 0.46 |
| GGGCAGCAAUAUUACGGAGU | -2.8 ± 0.12 | -1.78 ± 0.11 |
| UAAGAGCAAUAUUACGUUCG | -1.48 ± 0.11 | -0.784 ± 0.14 |
| UUUUAGCAAUAUUACGAAUU | -3.26 ± 0.38 | -1.23 ± 0.29 |
| AUGAAGCAAUAUUACGUGUG | -1.18 ± 0.059 | -0.763 ± 0.078 |
| CUUGAGCAAUAUUACGAUCG | -1.2 ± 0.16 | -0.798 ± 0.23 |
| ACACAGCAAUAUUACGGUUG | -1.37 ± 0.066 | -1.31 ± 0.11 |

| Sequence | self-splicing fitness (ln) (30 °C) | self-splicing fitness (ln) (37 °C) |
| --- | --- | --- |
| UGUGAGCAAUAUUACGUAAC | -3.16 ± 0.28 | -2.25 ± 0.38 |
| CUGCAGCAAUAUUACGGCCC | -2.85 ± 0.36 | – |
| UUAGAGCAAUAUUACGUCUU | -1.62 ± 0.097 | -0.85 ± 0.13 |
| CUAGAGCAAUAUUACGAUGC | -2.31 ± 0.42 | -1.94 ± 0.43 |
| GACAAGCAAUAUUACGUCGU | -3.44 ± 0.14 | -2.24 ± 0.11 |
| UGAAAGCAAUAUUACGCACU | -0.504 ± 0.094 | 0.371 ± 0.11 |
| CAUAAGCAAUAUUACGUACA | -3.09 ± 0.36 | -2.37 ± 0.19 |
| GGUCAGCAAUAUUACGAGUU | -1.38 ± 0.068 | -0.17 ± 0.071 |
| CCGGAGCAAUAUUACGAGUA | -3.34 ± 0.27 | -2 ± 0.26 |
| UACAAGCAAUAUUACGGGAC | -2.61 ± 0.16 | -2.58 ± 0.17 |
| UUUAAGCAAUAUUACGUUGU | -3.69 ± 0.25 | -2.2 ± 0.26 |
| UAUGAGCAAUAUUACGUAGA | -2.7 ± 0.18 | -2.46 ± 0.2 |
| GUGCAGCAAUAUUACGGCCG | -1.8 ± 0.26 | -1.12 ± 0.3 |
| UUAAAGCAAUAUUACGCGCC | -0.43 ± 0.15 | -0.00103 ± 0.24 |
| UUGUAGCAAUAUUACGGGCU | -2.88 ± 0.29 | -1.62 ± 0.22 |
| CACAAGCAAUAUUACGCGCA | -0.607 ± 0.095 | -1.28 ± 0.1 |
| AAACAGCAAUAUUACGUGUA | -2.6 ± 0.1 | -1.41 ± 0.089 |
| AAUUAGCAAUAUUACGCAUU | -2.52 ± 0.17 | -2.69 ± 0.21 |
| UGUGAGCAAUAUUACGAUAU | -2.31 ± 0.22 | -1.66 ± 0.37 |
| UACUAGCAAUAUUACGUGGU | -2.87 ± 0.14 | -2.75 ± 0.17 |
| UAAUAGCAAUAUUACGCAGU | -3.55 ± 0.37 | -2.1 ± 0.34 |
| ACACAGCAAUAUUACGCUGU | -3.38 ± 0.14 | -3 ± 0.21 |
| GACGAGCAAUAUUACGUAUA | -3.23 ± 0.29 | -0.524 ± 0.2 |
| GCCUAGCAAUAUUACGUGCU | -2.06 ± 0.074 | -1.17 ± 0.084 |
